Reference: patent US20220340685A1, “COMBINATION THERAPY WITH ENTPD2 AND CD73 ANTIBODIES” (Novartis AG, priority 2019, published 2022)
Residue numbers refer to the chain shown, from its start.

Assays:
ENTPD2 = biological target: T1, ENTPD2 (Homo sapiens, UniProt Q9Y5L3); test: Cell-based screen of hybridoma-derived mAbs for inhibition of ATP hydrolysis by ENTPD2
T1 sequence (Q9Y5L3 1-495): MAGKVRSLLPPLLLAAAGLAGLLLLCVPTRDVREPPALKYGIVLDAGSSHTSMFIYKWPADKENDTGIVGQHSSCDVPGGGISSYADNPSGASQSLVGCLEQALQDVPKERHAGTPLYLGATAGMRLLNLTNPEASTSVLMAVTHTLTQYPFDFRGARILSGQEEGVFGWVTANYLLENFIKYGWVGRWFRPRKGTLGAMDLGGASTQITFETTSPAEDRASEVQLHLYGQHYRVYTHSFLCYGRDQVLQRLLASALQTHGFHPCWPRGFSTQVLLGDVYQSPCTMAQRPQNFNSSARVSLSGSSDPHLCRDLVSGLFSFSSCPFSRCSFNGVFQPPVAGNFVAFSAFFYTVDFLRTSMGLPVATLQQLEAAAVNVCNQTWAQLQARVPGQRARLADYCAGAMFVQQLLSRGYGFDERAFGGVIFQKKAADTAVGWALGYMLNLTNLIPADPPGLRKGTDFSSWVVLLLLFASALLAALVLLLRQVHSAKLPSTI
Source text: Hybridoma-derived mAbs were screened in a cell-based assay for inhibition of ATP hydrolysis by ENTPD2.

[1] = biological target: T2, recombinant human ENTPD2 (residues 29-462) (Homo sapiens, UniProt Q9Y5L3); test: Biochemical human ENTPD2 functional assay (Transcreener ADP2 TR-FRET)
T2 construct: residues 29-462 of human or cyno ENTPD2; GP67 signal peptide (N); made in house; host or cells: High Five (Trichoplusia ni) insect cells, baculovirus
T2 sequence (Q9Y5L3 29-462): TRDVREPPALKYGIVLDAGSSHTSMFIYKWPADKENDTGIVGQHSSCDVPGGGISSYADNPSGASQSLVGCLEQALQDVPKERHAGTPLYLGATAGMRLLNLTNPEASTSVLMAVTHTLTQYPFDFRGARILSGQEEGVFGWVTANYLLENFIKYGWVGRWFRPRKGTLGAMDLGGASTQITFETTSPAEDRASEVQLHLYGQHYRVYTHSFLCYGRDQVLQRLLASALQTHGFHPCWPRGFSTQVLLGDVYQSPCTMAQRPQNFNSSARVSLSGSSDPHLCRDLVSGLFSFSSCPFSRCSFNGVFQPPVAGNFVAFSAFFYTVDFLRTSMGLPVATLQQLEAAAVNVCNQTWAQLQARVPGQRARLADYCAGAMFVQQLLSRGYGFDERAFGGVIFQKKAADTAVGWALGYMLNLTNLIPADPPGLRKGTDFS
Source text: Biochemical and cell-based functional assays were developed in-house to understand functional impact of anti-ENTPD2 Abs against purified extracellular domain of ENTPD2 (residues 29-462), as well as against the fully intact protein in the context of the native cell-based conformation. ENTPD2 hydrolyzes ATP to ADP, which can subsequently be detected using the HTRF Transcreener ADP2 TR-FRET Red Assay (BellBrook Labs, Madison, Wis.) where ENTPD2-produced ADP would compete with the ADP Tracer for binding to the anti-ADP-Tb antibody. The resulting signal is inversely proportional to the concentration of ADP in the sample. […]
HTRF signal (Emission at 620 nm and 665 nm) was assessed in both assays using the Envision plate reader in HTRF mode (Perkin Elmer, Waltham, Mass.). HTRF ratio was determined using the following formula: HTRF ratio=R=Emission at 665 nm/Emission at 620 nm×10,000. Subsequently % Residual Activity and % Inhibition were determined as follows:
Where R0% is the HTRF ratio of the negative control (0% enzyme activity), and R100% is the HTRF ratio of the positive control (100% enzyme activity). Data were analyzed in Microsoft Excel and graphed using GraphPad's Prism 7.0 software and IC50 values were obtained using non-linear regression, log (agonist) vs. response-variable slope (four parameters) analysis.

B16F10 tumor model = test: Syngeneic B16F10 tumor model, tumor growth; assay type: in vivo, C57BL/6 mice; conditions: mAb13 15 mg/kg, anti-PD-1 Ab 10 mg/kg i.p., days 1, 5, 8
Procedure: B16F10 model was established in female C57BL/6 mice by subcutaneous injection of 0.5×10^6 cells into the right flank of each mouse. On day 7 once tumors reached approximately 30 mm^3, mice were randomized according to tumor volume into treatment groups (n=10 per group). Mice received treatment of either anti-mouse ENTPD2 mAb13 at a final dose 15 mg/kg, anti-PD-1 Ab (clone RMP1-14 Bio X Cell, West Lebanon, N.H.) i.p. at a final dose of 10 mg/kg or the combination of both treatments on days 1, 5, and 8. All doses were adjusted to individual mouse body weights.

[2] = tested on: mouse ENTPD2-engineered 4T1 clone 45; test: Mouse ENTPD2 engineered 4T1 clone 45 syngeneic model, efficacy; assay type: in vivo, BALB/c mice; conditions: Day 12 post treatment; mAb15 10 mg/kg i.p.; mAb 350 20 mg/kg i.p.
Source text: This model was derived from the 4T1 murine breast cancer model, where mouse ENTPD2 was overexpressed using a retroviral transduction approach. […] Stable mouse ENTPD2 expression (approximately 479,000 receptors) in the model was confirmed in vitro by flow cytometry with the mouse ENTPD2 selective anti mouse ENTPD2 mAb15 (FIG. 27).
(§1) Mouse ENTPD2-engineered 4T1 clone 45 model was established in female BALB/c mice by subcutaneous injection of 0.5×10^6 cells into the right flank of each mouse. Once tumors reached approximately 50-80 mm^3, mice were randomized according to tumor volume into treatment groups (n=10 per group). Mice received an i.p. treatment of either Anti-mENTPD2 mAb15 or a non-specific mouse IgG2a isotype control at a final dose of 10 mg/kg on day 0, 2, 5 and 9. Anti-CD73 mAb 350 or a non-specific human IgG4 was dosed i.p. at a final dose of 20 mg/kg on day 0 and 5.

4T1 clone 45 model = test: 4T1 clone 45 model, plasma cytokines and Serum Amyloid P 24 hr post treatment; assay type: in vivo, BALB/c mice; conditions: 24 hours after the first treatments
Source text: In order to investigate the immediate impact of ENTPD2 blockade from an immune pathway engagement/biomarker perspective plasma was collected from BALB/c mice 24 hr after treatment with anti mENTPD2 mAb15 alone or in combination with anti-CD73 mAb 350.
as §1, with “100-150” for “50-80”, “(n=8” for “(n=10”, “mAb 15” for “mAb15”, “5 (Table 28).” for “5.”
For the measurement of cytokines and Serum Amyloid P, a marker of inflammation in a mouse, plasma was collected pre-dosing the mice on Day 0 and 24 hours after the first treatments on Day 1.
Briefly, plasma was isolated via collection of blood into Microvette MV-H-300 Capillary Plasma Lithium Heparin Blood Collection tube (Sai Infusion technologies, Lake Villa, Ill.), that were spun down at 1000-2000 ×g for 10 min. Plasma samples were stored at −80C until use. 10 μL of serum diluted 1:5 was used for cytokine analysis using the MSD Mouse Pro-Inflammatory Panel 1 (MSD, Rockville, Md.) and 5 μL of serum diluted 1:10 MSD Mouse Cytokine Panel 1 (MSD, Rockville, Md.) according to manufacturer's recommendations. To determine the levels of SAP 10 μL of undiluted serum was used for analysis in the SAP Quantikine® ELISA (RnD systems) according to manufacturer's recommendations.

4T1 clone 45 tumors = test: 4T1 clone 45 model, flow cytometry of tumor cells and immune infiltrate on day 12; assay type: in vivo, BALB/c mice
Source text: In order to understand the impact of anti-ENTPD2 mAb15 alone or in combination with anti-CD73 mAb 350 treatments on the tumor microenvironment, mice were euthanized on day 12 and tumors were dissociated in HyClone RPMI1640 media (GE Healthcare, Pittsburg, Pa.) using gentleMacs C-tubes (Miltenyi Biotec, Auburn, Calif.) on the gentleMacs Octo Dissociator (Miltenyi Biotec, Auburn, Calif.). Approximately 2×10^6 dissociated tumor cells were blocked with rat anti-mouse CD16/CD32 Ab (Biolegend, San Diego, Calif.) to reduce non-specific FcyRIII/II binding and subsequently stained with the cocktails of antibodies from either the myeloid or T cell panel:
We also stained cells with an anti-ENTPD2 antibody whose binding to ENTP2 is not blocked by anti-ENTPD2 mAb15. All incubations and washed were performed in FACS Buffer composed of 1× Hyclone Phosphate Buffered Saline (GE Healthcare, Pittsburg, Pa.), 1% HyClone Fetal Bovine Serum (GE Healthcare, Pittsburg, Pa.), 2 mM EDTA (ThermoFisher, Waltham Mass.).

B1: mAb17: hybridoma-derived anti-human ENTPD2 lead inhibitory mAb (chimeric); VH/VL DNA SEQ ID NO: 234/238 (antibody, V domains shown)
VH: EVQLQQFGAELVKPGASVKISCKASGYTFTDYNMDWVKQSHGKSLEWIGDINPKYDISTYNQQFKGKATLTVDKSSSTAYMELRSLTSEDTAVYYCARRGFFLYYGINYYYFDVWGAGTTVTVSS
VL: QIVLTQSPAIMSASLGEEITLTCSASSSVSYIHWYQQKSGTSPTLLIYSTSNLASGVPSRFSGSGSGTFYSLTISSVEAEDAADYYCHQWSSYPWTFGGGTKLEIK
modifications: constant regions not cited
inhibition of ATP hydrolysis by ENTPD2 (screen outcome) (ENTPD2): lead inhibitory mAbs | inhibition of the catalytic activity of recombinant human ENTPD2 [1]: potently inhibit

B2: mAb13: anti-mouse ENTPD2 monoclonal antibody; HC SEQ ID NO: 193, LC SEQ ID NO: 204 (antibody)
heavy: QVQLVQSGAELKQPGQSVKISCKASGYTFTHYGMNWVKQAPGQGLKWMGWINTDTGNPTYADDFKGRFVFSLDTSVSTAYLQISNLKNEDTATYYCVRYGTLYSGYGFFFDSWGQGTLVTVSSAKTTAPSVYPLAPVCGDTTGSSVTLGCLVKGYFPEPVTLTWNSGSLSSGVHTFPAVLQSDLYTLSSSVTVTSSTWPSQSITCNVAHPASSTKVDKKIEPRGPTIKPCPPCKCPAPNLLGGPSVFIFPPKIKDVLMISLSPIVTCVVVDVSEDDPDVQISWFVNNVEVHTAQTQTHREDYNSTLRVVSALPIQHQDWMSGKEFKCKVNNKDLPAPIERTISKPKGSVRAPQVYVLPPPEEEMTKKQVTLTCMVTDFMPEDIYVEWTNNGKTELNYKNTEPVLDSDGSYFMYSKLRVEKKNWVERNSYSCSVVHEGLHNHHTTKSFSRTPGK
light: DIMMTQSPSSLSVSAGEKATITCKSSQSLFNSNTNKNYLNWYLQKPGQSPKLLFYYASTRHTGVPDRFIGSGSGTDFTLTITSVQDEDLADYYCQQWYSYPWTFGPGTKLEIKRADAAPTVSIFPPSSEQLTSGGASVVCFLNNFYPKDINVKWKIDGSERQNGVLNSWTDQDSKDSTYSMSSTLTLTKDEYERHNSYTCEATHKTSTSPIVKSFNRNEC
anti-tumor efficacy (tumor growth relative to No Treatment) (B16F10 tumor model): No significant anti-tumor efficacy

B3: mAb15: anti-mouse ENTPD2 antibody, T30 variant of mAb13; HC SEQ ID NO: 218, LC SEQ ID NO: 204 (antibody)
heavy: B2 heavy with T30H
light: B2 light
AT/AC value [2]: 76.61 | SAP (Serum Amyloid P) (4T1 clone 45 model): significant increase | plasma IP10 (4T1 clone 45 model): significant increase | plasma MCP1 (4T1 clone 45 model): significant increase | plasma MIP-2 (4T1 clone 45 model): significant increase | CD4+ central memory cells (CD45+MHCII-CD49−CD4+CD62L+CD44+) (4T1 clone 45 tumors; day 12): significant increase | activated CD8+ T cells (CD45+MHCII-CD49−CD8+CD25+) (4T1 clone 45 tumors; day 12): significant increase | cell surface ENTPD2 staining on tumor cells (4T1 clone 45 tumors; day 12, vs hIgG4 and mIgG2 isotype antibodies): decrease in cell surface ENTPD2 staining

B4: mAb16: hybridoma-derived anti-human ENTPD2 lead inhibitory mAb (chimeric); VH/VL DNA SEQ ID NO: 226/230 (antibody, V domains shown)
VH: DIQLQESGPGLVKPSQSLSLTCSVTGYSITSGYYWNWIRQFPGNKLEWMGYISYDGDNNYNPSLKNRISITRDTSKNQFFLKLSSVTTEDTATYYCAGGYYRYGLSYYYVMDYWGQGTSVTVSS
VL: DTVLTQSPASLAVSLGQRATISCKASQSVDYDGNSYMNWYQQKPGQPPKLLIYAASNLESGIPARFSGSGSGTDFTLNIHPVEEEDAATYYCQQSNEDPPTFGGGTKLEIK
modifications: constant regions not cited
inhibition of ATP hydrolysis by ENTPD2 (screen outcome) (ENTPD2): lead inhibitory mAbs
